# Reference: patent publication US20150031601A1
# Target: serum proteins
# Assay: 90% serum, 30 kDa ultrafiltration, HPLC
row,Binder,Protein binding (%)
1,GFCWNVCVYRAGVRVCHRRCN [SEQ ID NO: 230],71%
2,GFCWRACVYRNGVRVCYRRCN [SEQ ID NO: 72],97%
3,KFCWNVCVYRNGVRVCHRRCN [SEQ ID NO: 100],78%
4,GFCWNVCVYRNGVRLCHRRCN [SEQ ID NO: 249],83%
5,GFCWYGCVYRNGVRVCYRRCN [SEQ ID NO: 15],96%
6,GFCWKVCVYRNGVRVCSRRCN [SEQ ID NO: 68],87%
7,GFCWYVCVYRNGVRVCYRRCS [SEQ ID NO: 53],99%
8,GFCWYVCVKRNGVRSCYRRCN [SEQ ID NO: 87],93%
9,GFCGHVCVYRNGVRRCYRRCN [SEQ ID NO: 155],83%
10,GFCFYVCVKRNGVRVCHRRCN [SEQ ID NO: 137],86%
11,MFCWNVCVYRNGVRVCHRRCN [SEQ ID NO: 101],81%
12,GFCWNVCVYRNGVRNCHRRCN [SEQ ID NO: 251],71%
13,GFCTYVCVKRNGVRKCYRRCN [SEQ ID NO: 195],95%
14,GFCYKVCVYRNGVRSCYRRCN [SEQ ID NO: 206],86%
15,GFCWNICVYRNGVRVCHRRCN [SEQ ID NO: 262],88%
16,GFCWYACVYRNGKRVCYRRCN [SEQ ID NO: 80],96%
17,GFCWNVCVYRNGYRVCHRRCN [SEQ ID NO: 242],83%
18,GFCWRVCVYRNGVRVCHRRCN [SEQ ID NO: 76],92%
19,GFCGHVCVYRNGVRVCYRRCN [SEQ ID NO: 60],64%
20,GFCWNVCVYRNGVRGCHRRCN [SEQ ID NO: 246],79%
21,GFCWNFCVYRNGVRVCHRRCN [SEQ ID NO: 260],84%
22,GFCGRVCVYRNGVRRCYRRCN [SEQ ID NO: 170],87%
23,GFCWYVCVYRNGVRTCYRRCN [SEQ ID NO: 45],98%

row,Binder,Protein binding (%)
1,GFCWNVCVYRNGVRICHRRCN [SEQ ID NO: 248],58%
2,GFCYRVCVYRNGVRTCYRRCN [SEQ ID NO: 209],89%
3,GFCARVCVKRNGVRVCYRRCN [SEQ ID NO: 125],90%
4,GFCSYVCVYRNGVRVCYRRCN [SEQ ID NO: 7],68%
5,GFCWYSCVYRNGVRVCYRRCN [SEQ ID NO: 19],89%
6,GFCWHVCVYRNGARSCYRRCN [SEQ ID NO: 213],95%
7,GFCWNVCVYRNRVRVCHRRCN [SEQ ID NO: 228],86%
8,GFCWNVCVYRNGVRFCHRRCN [SEQ ID NO: 245],85%
9,GFCAKVCVYRNGVRSCYRRCN [SEQ ID NO: 120],69%
10,GFCWNVCVYRNGHRVCHRRCN [SEQ ID NO: 237],40%
11,GFCWNVCVYRHGVRVCHRRCN [SEQ ID NO: 232],85%
12,GFCWYVCVYRNGVRVCNRRCN [SEQ ID NO: 48],68%
13,GFCWKVCVYRNGVRVCYRRCN [SEQ ID NO: 10],64%
14,GFCWHVCARRNGVRVCYRRCN [SEQ ID NO: 218],99%
15,GFCWNVCVYRNGVRVCHRRCN [NZ17074 (the antimicrobial peptide of SEQ ID NO: 70)],79%
16,GFCGHVCVYRNGVRVCYRRCS [SEQ ID NO: 144],68%
17,GFCARVCVYRNGVRSCYRRCN [SEQ ID NO: 122],81%
18,GFCWNVCVYRGGVRVCHRRCN [SEQ ID NO: 231],66%
19,GFCGRVCVRRNGVRVCYRRCN [SEQ ID NO: 172],88%
20,GFCAYVCVYRNGVRVCYRRCN [SEQ ID NO: 4],89%
21,GFCWNVCVYRNYVRVCHRRCN [SEQ ID NO: 229],91%
22,GFCWYVCVYKNGVRVCHRRCN [SEQ ID NO: 89],90%
23,GFCGRVCVYRNGVRTCYRRCN [SEQ ID NO: 171],84%

row,Binder,Protein binding (%)
1,GFCWYVCVYRNGVRVCHRRCN [SEQ ID NO: 46],88%
2,HFCWNVCVYRNGVRVCHRRCN [SEQ ID NO: 98],77%
3,GFCWNVCVYRQGVRVCHRRCN [SEQ ID NO: 233],78%
4,GFCWNVCVYRNKVRVCHRRCN [SEQ ID NO: 227],80%
5,GFCYRVCVYRNGVRVCSRRCN [SEQ ID NO: 211],96%
6,GFCWNVCVYRNGVRYCHRRCN [SEQ ID NO: 254],77%
7,GFCGRVCVYRNGVRVCYRRCN [SEQ ID NO: 61],72%
8,GFCWHVCHYRNSVRVCYRRCN [SEQ ID NO: 219],99%
9,GFCWNVCVYRNGRRVCHRRCN [SEQ ID NO: 239],65%
10,GFCYRVCVYRNGVRVCHRRCN [SEQ ID NO: 210],89%
11,GFCWYVCVYRNGVRVCKRRCN [SEQ ID NO: 47],89%
12,GFCWNVCVYRNGARVCHRRCN [SEQ ID NO: 235],64%
13,GFCWNVCVYRNGVRWCHRRCN [SEQ ID NO: 253],94%
14,GFCYNVCVYRNGVRRCYRRCN [SEQ ID NO: 207],91%
15,GFCWNVCVYRNGVRRCHRRCN [SEQ ID NO: 252],76%
16,GFCWNVCVYRRGVRVCHRRCN [SEQ ID NO: 234],86%
17,GFCWNACVKRNGVRVCYRRCN [SEQ ID NO: 258],89%
18,GFCWRVCHYRNGVRVCYRRCN [SEQ ID NO: 74],99%
19,GFCWYVCVYRNGVRVCYRRCT [SEQ ID NO: 54],99%
20,GFCFYVCVYRNGVRVCRRRCN [SEQ ID NO: 56],94%
21,GFCWNVCVYRNGVRVCYRRCN [SEQ ID NO: 11],73%
